Assay results from patent publication US20160238596.

Key:
[1] = biological target: Indicator molecule containing the cleavable sequence GPQGIFGQ with a terminal biotin group connected via a polyethylene glycol spacer/linker (intact)
[2] = biological target: T1, Cyclised HNE substrate lacking the tyrosine residue (CQESIRLPGC attached to the scaffold)
T1 chain: CQESIRLPGC

[3] = biological target: T2, Cyclised MOL488 peptide (YCQESIRLPGC attached to the scaffold derived from 1,3-dibromomethylbenzene)
T2 chain: YCQESIRLPGC

Row | Protein | Reader value (lateral flow, CF1522 gold) at 0.5 µg/ml MMP [1] [reader units] | HPLC analysis of elastase digestion [2] | mass spectrometry of substrate and hydrolysed product [2] | preparative enzymatic cleavage followed by HPLC and mass spectrometry [3]
1 | MMP 1 (Enzo) (protein) FVLTEGNPRWEQTHLTYRIENYTPDLPRADVDHAIEKAFQLWSNVTPLTFTKVSEGQADIMISFVRGDHRDNSPFDGPGGNLAHAFQPGPGIGGDAHFDEDERWTNNFREYNLHRVAAHELGHSLGLSHSTDIGALMYPSYTFSGDVQLAQDDIDGIQAIYGRSQNPVQP | 478 | – | – | –
2 | MMP 12 (Enzo) (protein) FREMPGGPVWRKHYITYRINNYTPDMNREDVDYAIRKAFQVWSNVTPLKFSKINTGMADILVVFARGAHGDFHAFDGKGGILAHAFGPGSGIGGDAHFDEDEFWTTHSGGTNLFLTAVHEIGHSLGLGHSSDPKAVMFPTYKYVDINTFRLSADDIRGIQSLYG | 1250 | – | – | –
3 | MMP 7 (Enzo) (protein) YSLFPNSPKWTSKVVTYRIVSYTRDLPHITVDRLVSKALNMWGKEIPLHFRKVVWGTADIMIGFARGAHGDSYPFDGPGNTLAHAFAPGTGLGGDAHFDEDERWTDGSSLGINFLYAATHELGHSLGMGHSSDPNAVMYPTYGNGDPQNFKLSQDDIKGIQKLYGKRSNSRKK | 373 | – | – | –
4 | MMP 11 (Enzo) (protein) FVLSGGRWEKTDLTYRILRFPWQLVQEQVRQTMAEALKVWSDVTPLTFTEVHEGRADIMIDFARYWHGDDLPFDGPGGILAHAFFPKTHREGDVHFDYDETWTIGDDQGTDLLQVAAHEFGHVLGLQHTTAAKALMSAFYTFRYPLSLSPDDCRGVQHLYGQPWPTVTSRTPA | 280 | – | – | –
5 | Human Neutrophil elastase (Leeblo Solutions inc.) (protein) IVGGRRARPHAWPFMVSLQLRGGHFCGATLIAPNFVMSAAHCVANVNVRAVRVVLGAHNLSRREPTRQVFAVQRIFENGYDPVNLLNDIVILQLNGSATINANVQVAQLPAQGRRLGNGVQCLAMGWGLLGRNRGIASVLQELNVTVVTSLCRRSNVCTLVRGRQAGVCFGDSGSPLVCNGLIHGIASFVRGGCASGLYPDAFAPVAQFVNWIDSIIQ | – | a single cleavage product results from HNE activity on the peptide | the substrate is cleaved at a single site and that the substrate otherwise remains intact | A new product peak evolved over time
